Test results from publication PMC3625871.

Molecular target: T1, AtVOZ2m (Arabidopsis thaliana, UniProt Q9SLB9 1-450, C249A;H253A)
T1 sequence: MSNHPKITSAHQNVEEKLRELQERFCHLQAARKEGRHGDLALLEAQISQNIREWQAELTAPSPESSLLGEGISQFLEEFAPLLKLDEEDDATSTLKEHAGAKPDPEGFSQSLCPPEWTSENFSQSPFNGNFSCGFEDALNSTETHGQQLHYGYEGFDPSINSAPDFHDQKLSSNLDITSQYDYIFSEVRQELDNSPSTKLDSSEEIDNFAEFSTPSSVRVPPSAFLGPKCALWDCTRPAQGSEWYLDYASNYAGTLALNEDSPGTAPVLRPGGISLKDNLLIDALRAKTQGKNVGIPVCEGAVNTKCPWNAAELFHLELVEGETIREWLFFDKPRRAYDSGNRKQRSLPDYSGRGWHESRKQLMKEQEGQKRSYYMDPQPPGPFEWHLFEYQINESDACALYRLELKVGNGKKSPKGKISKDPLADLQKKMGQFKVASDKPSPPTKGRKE
Assay: EMSA

B1: pMOS3 (dsDNA)
DNA 1: GACGTCCGGCGCAGCGTTTATCAGACGCTGGGATTAAAACA
DNA 2: TGTTTTAATCCCAGCGTCTGATAAACGCTGCGCCGGACGTC
binding result: no binding
